# Experimental data reported in PMC4305340.
# Where two headings read alike, the source gives them in different places.
# B1: Phly PrfA box (dsDNA)
# DNA 1: TGAGGCATTAACATTTGTTAACGACGAT
# DNA 2: ATCGTCGTTAACAAATGTTAATGCCTCA
# B2: PactA PrfA box (dsDNA)
# DNA 1: AACTGATTAACAAATGTTAGAGAAAACT
# DNA 2: AGTTTTCTCTAACATTTGTTAATCAGTT
# Columns and labels:
# Assay in all cases: fluorescence polarization
# PrfA(C/A)4 = PrfA(C/A)4 (Listeria monocytogenes, UniProt P22262 1-237, C38A;C144A;C205A;C229A)
# PrfA wild type [1] = biological target: T1, PrfA wild type (Listeria monocytogenes, UniProt P22262 1-237)
# PrfA wild type [2] = biological target: T1, PrfA wild type; remark: listed apart in the source
Binder,Kd (PrfA(C/A)4),Kd (PrfA wild type [1]),Kd (PrfA wild type [2])
B1,32.8 nM,34.2 nM,
B2,125 nM,,96.4 nM
